Reference: US11124558B2, “Use of tetranectin and peptide agonists to treat inflammatory diseases” (The Feinstein Institutes for Medical Research, priority 2017, dated 2021)
Read-outs that look alike come from different tables or passages of the source.

What was measured:
[1] = system: lethal endotoxemia, Balb/C mice; experiment: Lethal endotoxemia (LPS) survival in mice; format: in vivo; conditions: LPS 5 mg/kg i.p., male Balb/C mice, TN given i.p., survival monitored more than two weeks
Procedure: FIG. 6A-6C: Recombinant TN protected mice against lethal endotoxemia and sepsis. Male Balb/C mice were subjected to lethal endotoxemia (LPS, 5 mg/kg, i.p., Panel A) or sepsis by cecal ligation and puncture (CLP, Panel B, C), and recombinant TN produced in HEK293 (Panel A, B) or E. coli (Panel C) was given intraperitoneally at indicated dosing regimens. Animal survival rates were monitored for more than two weeks to ensure no later death. Shown in Panel B and C is a summary of two independent experiments with similar results.
Effects of TN or peptide agonist on LSI. Balb/C mice (both male and female, 7-8 weeks, 20-25 g) are subjected to lethal endotoxemia or sepsis as described above, and the recombinant TN is injected (i.p.) at various doses and time points (2, 24, and 48 h) after the onset of endotoxemia or sepsis. Their effects on the outcomes of LSI is assessed by comparing the long-term (two-week) survival rates between the TN-treated groups with saline vehicle-treated controls. By varying the time points (e.g., 2, 12, 24 or 36 h) when the first dose of TN will be given to animals, the therapeutic windows for the TN-based therapy is estimated. […] It will be critical to continue these exciting experiments using other dosing regimens to further validate TN's protective role in LSI.
Effects of TN or peptide agonist supplementation on LSI. Balb/C mice (both male and female, 7-8 weeks, 20-25 g) are subjected to lethal endotoxemia or sepsis as described above, and the recombinant TN will be injected (i.p.) at various doses and time points (2, 24, and 48 h) after the onset of endotoxemia or sepsis. Their effects on the outcomes of LSI will be assessed by comparing the long-term (two-week) survival rates between the TN-treated groups with saline vehicle-treated controls. By varying the time points (e.g., 2, 12, 24 or 36 h) when the first dose of TN will be given to animals, the therapeutic windows for the TN-based therapy will be estimated.

[2] = system: circulating D-dimer, endotoxemic Balb/C mice; experiment: Plasma D-dimer level in endotoxemic mice (ELISA); format: in vivo; conditions: 24 h post endotoxemia
Procedure: Venous blood was obtained from normal healthy and endotoxemic, Balb/C mice at 24 h post endotoxemia in the absence or presence of recombinant TN. The plasma level of fibrin degradation product (FDP's, e.g., D-dimer) was measured using commercial ELISA kit (Cat. No. EKU03631, Biomatik) as per the manufacturers' instructions. *, P<0.05 as compared to the positive control (+LPS alone).
In light of HMGB1's key role in the platelet activation/aggregation and its possible interaction with TN protein, the impact of TN or TN-specific peptide agonists on the pro-fibrinolytic activities is evaluated by measuring the plasma level of fibrin degradation products (FDP's, e.g., D-dimer) using commercial ELISA kits (Cat. No. EKU03631, Biomatik) as per the manufacturers' instructions. A parallel elevation of D-dimer levels is indicative of a possible acceleration of the fibrinolysis cascade by the TN treatment. However, a decrease in the D-dimer concentration is indicative of a reduction of either the plasmin-mediated fibrinolysis or the thrombin-mediated coagulation. […] Given the complex roles of fibrinolysis in sepsis, therapeutic agents that could control coagulation/fibrinolysis balance, while maintaining the host defense at the infectious foci, can be useful for understanding the complex pathogenesis of lethal systemic inflammatory diseases.

[3] = target: plasminogen (PLMG) (Homo sapiens, UniProt P00747); conditions: cited from earlier work
Chain of plasminogen (PLMG) (P00747 20-810 limits assumed): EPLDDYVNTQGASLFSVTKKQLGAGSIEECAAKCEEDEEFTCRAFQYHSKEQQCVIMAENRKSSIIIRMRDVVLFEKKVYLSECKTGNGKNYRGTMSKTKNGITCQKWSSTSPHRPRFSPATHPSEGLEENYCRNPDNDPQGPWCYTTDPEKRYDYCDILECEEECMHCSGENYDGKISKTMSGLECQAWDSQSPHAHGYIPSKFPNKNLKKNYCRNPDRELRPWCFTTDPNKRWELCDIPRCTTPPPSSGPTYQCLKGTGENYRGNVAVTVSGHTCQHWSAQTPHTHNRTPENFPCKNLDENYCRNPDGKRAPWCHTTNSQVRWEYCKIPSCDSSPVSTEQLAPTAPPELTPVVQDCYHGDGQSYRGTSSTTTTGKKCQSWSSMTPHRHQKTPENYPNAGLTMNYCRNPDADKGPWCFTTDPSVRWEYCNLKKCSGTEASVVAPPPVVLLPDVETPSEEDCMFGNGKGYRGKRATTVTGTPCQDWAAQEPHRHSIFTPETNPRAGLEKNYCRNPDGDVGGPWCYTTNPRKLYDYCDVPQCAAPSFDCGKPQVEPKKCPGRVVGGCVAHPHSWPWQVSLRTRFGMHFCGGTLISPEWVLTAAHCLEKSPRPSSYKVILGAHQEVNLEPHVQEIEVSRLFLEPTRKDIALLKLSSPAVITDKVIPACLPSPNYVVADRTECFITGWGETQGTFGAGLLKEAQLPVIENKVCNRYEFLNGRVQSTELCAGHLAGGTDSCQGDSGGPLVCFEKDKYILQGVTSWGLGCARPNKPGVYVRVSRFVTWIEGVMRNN

[4] = target: apolipoprotein A1 (Apo-A1); conditions: ref [58]; read-out: Kd of TN binding to Apo-A1; cited from earlier work
[5] = system: HMGB1 release, human peripheral blood mononuclear cells (HuPBMCs); experiment: LPS- or SAA-induced HMGB1 release in primary human peripheral blood mononuclear cells (Western blotting); format: cell-based; conditions: for inhibition of LPS- or SAA-induced HMGB1 release: HuPBMCs / human monocytes, 16 h, TN from HEK293 or E. coli
Procedure: A, B, Primary murine peritoneal macrophages. C, Primary human peripheral blood mononuclear cells (HuPBMCs). Murine macrophages or human monocytes (HuPBMCs) were cultured in serum-free OPTI-MEM I medium, and stimulated with LPS or SAA for 16 h at the indicated concentrations. The extracellular HMGB1 levels were determined by Western blotting, and expressed as % of maximal stimulation by LPS or SAA alone.
Immune-modulating properties of tetranectin: To explore TN's immune-modulating properties, its effects on the LPS- and SAA-induced HMGB1 release were examined in murine macrophage and human monocyte cultures. […] This inhibition was TN-dose-dependent, evident at concentrations as low as 5.0 μg/ml, and became more dramatic (with 50-100% inhibition) at higher doses.
Effects of TN on the LPS-, IFN-γ-, or SAA-induced HMGB1 release. To elucidate the regulatory mechanisms of HMGB1 release, we will examine the impact of TN and its peptide agonists on the HMGB1 release induced by a wide array of inflammatory stimuli including the crude LPS [75], IFN-γ [76] and SAA [77], in macrophage and monocyte cultures. Primary peritoneal macrophages will be isolated from the Balb/C mice (both male and female, 7-8 weeks, 20-25 g) at 2-3 days after intraperitoneal injection of 2 ml thioglycollate broth (4%, Difco, Detroit, Mich.) as previously described. Human peripheral blood mononuclear cells (HuPBMCs) will be isolated from human blood obtained from the Long Island Blood Bank (NY) by density gradient centrifugation through Ficoll as previously described. At 80-90% confluence, macrophage/monocyte cultures will be stimulated with the crude LPS (Cat. No. L3012, Sigma-Aldrich), IFN-γ (Cat. No. 14777, Sigma-Aldrich), or SAA (Cat. No. 300-13, PeproTech) at different concentrations and for various time periods. The extracellular levels of HMGB1 in the culture medium will be determined by Western blotting as previously described.

[6] = system: HMGB1 release; experiment: LPS/SAA-induced HMGB1 release, summary statement (cells not specified); format: cell-based

B1: tetranectin (protein, listed as Homo sapiens)
chain: EPPTQKPKKIVNAKKDVVNTKMFEELKSRLDTLAQEVALLKEQQALQTVCLKGTKVHMKCFLAFTQTKTFHEASEDCISRGGTLGTPQTGSENDALYEYLRQSVGNEAEIWLGLNDMAAEGTWVDMTGARIAYKNWETEITAQPDGGKTENCAVLSGAANGKWFDKRCRDQLPYICQFGIV
protection against lethal endotoxemia (animal survival) [1]: significant protection | protection against lethal endotoxemia (animal survival) ([1]; listed as Recombinant TN): protected | protection against lethal endotoxemia (animal survival) ([1]; listed as recombinant TN): significant protection | effect on endotoxin-induced elevation of circulating D-dimer levels ([2]; P<0.05 vs +LPS alone): significantly attenuated | reduction of plasma D-dimer levels ([2]; at doses that conferred significant protection): 40-50% | Kd ([3]; ref [57], read-out: Kd of calcium-sensitive TN-PLMG interaction): 500 nM | Kd ([3]; ref [74], read-out: Kd of TN-PLMG interaction): 500 nM | Kd [4]: 13 nM | inhibition of LPS- or SAA-induced HMGB1 release [5]: dose-dependently inhibited | inhibition of LPS- or SAA-induced HMGB1 release ([5]; listed as recombinant human TN protein): capable of inhibiting | lowest concentration at which inhibition of HMGB1 release was evident ([5]; human monocytes): 5.0 µg/mL | inhibition of HMGB1 release at higher doses ([5]; human monocytes, doses above 5.0 μg/ml): 50-100% | attenuation of LPS/SAA-induced HMGB1 release [6]: dose-dependently attenuated
